Molecular target: the molecule itself
Experiment: SEC

B1: GIRK2 R92F channel (G protein-gated inwardly rectifying potassium channel 2, R92F substitution) (natural protein, mouse, UniProt P48542 1-425, looked up)
chain: MTMAKLTESMTNVLEGDSMDQDVESPVAIHQPKLPKQARDDLPRHISRDRTKRKIQRYVRKDGKCNVHHGNVRETYRYLTDIFTTLVDLKWFFNLLIFVMVYTVTWLFFGMIWWLIAYIRGDMDHIEDPSWTPCVTNLNGFVSAFLFSIETETTIGYGYRVITDKCPEGIILLLIQSVLGSIVNAFMVGCMFVKISQPKKRAETLVFSTHAVISMRDGKLCLMFRVGDLRNSHIVEASIRAKLIKSKQTSEGEFIPLNQSDINVGYYTGDDRLFLVSPLIISHEINQQSPFWEISKAQLPKEELEIVVILEGIVEATGMTCQARSSYITSEILWGYRFTPVLTMEDGFYEVDYNSFHETYETSTPSLSAKELAELANRAEVPLSWSVSSKLNQHAELETEEEEKNPEELTERNGDVANLENESKV
- stoichiometry N: 4

From article doi:10.1101/2025.02.14.637896 (bioRxiv, 2025)
